Experimental data reported in patent US20230068663A1.

Tests used:
Experiment in all cases: flow cytometry, reporter cells, secondary antibody alone (blank)
LAIR1 on reporter cells = LAIR1 on reporter cells (UniProt Q6GTX8)
[1] = molecular target: LILRA1 on reporter cells (extracellular domain) (UniProt O75019)
LILRA2 = molecular target: LILRA2
LILRA3 = molecular target: LILRA3
LILRA4 = molecular target: LILRA4
LILRA5 = molecular target: LILRA5
LILRA6 = molecular target: LILRA6
LILRB1 = molecular target: LILRB1
[2] = molecular target: LILRB2 chimeric receptor on LILRB2 reporter cells (extracellular domain of LILRB2 fused with transmembrane/intracellular domains of PILRb) (UniProt Q8N423)
LILRB3 = molecular target: LILRB3
LILRB4 = molecular target: LILRB4
LILRB5 = molecular target: LILRB5
LILRB5, sequence (chain, as listed by the source limits assumed): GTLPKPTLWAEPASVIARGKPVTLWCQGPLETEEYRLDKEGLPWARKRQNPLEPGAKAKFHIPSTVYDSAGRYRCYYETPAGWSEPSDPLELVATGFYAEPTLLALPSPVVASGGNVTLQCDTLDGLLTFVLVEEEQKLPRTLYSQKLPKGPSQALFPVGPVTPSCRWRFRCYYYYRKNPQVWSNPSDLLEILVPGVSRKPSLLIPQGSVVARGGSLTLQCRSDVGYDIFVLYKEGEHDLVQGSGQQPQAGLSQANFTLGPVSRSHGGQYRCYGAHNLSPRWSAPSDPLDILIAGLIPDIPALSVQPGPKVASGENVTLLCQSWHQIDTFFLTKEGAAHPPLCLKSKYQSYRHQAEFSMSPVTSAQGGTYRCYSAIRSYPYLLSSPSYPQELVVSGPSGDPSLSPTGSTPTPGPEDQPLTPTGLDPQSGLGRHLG

LILRB1, sequence (chain, as listed by the source limits assumed): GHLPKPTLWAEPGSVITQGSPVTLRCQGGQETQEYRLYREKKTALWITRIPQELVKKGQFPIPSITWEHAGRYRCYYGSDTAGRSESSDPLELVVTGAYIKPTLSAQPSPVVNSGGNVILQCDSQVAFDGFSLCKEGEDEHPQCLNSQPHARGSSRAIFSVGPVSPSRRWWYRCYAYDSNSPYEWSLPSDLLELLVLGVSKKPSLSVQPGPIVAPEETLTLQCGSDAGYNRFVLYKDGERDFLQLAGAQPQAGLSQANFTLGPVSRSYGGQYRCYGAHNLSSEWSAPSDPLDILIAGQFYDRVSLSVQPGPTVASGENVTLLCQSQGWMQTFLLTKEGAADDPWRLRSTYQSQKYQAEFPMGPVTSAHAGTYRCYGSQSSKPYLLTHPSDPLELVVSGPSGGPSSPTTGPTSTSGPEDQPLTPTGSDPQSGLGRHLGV
LILRA3, sequence (chain, as listed by the source limits assumed): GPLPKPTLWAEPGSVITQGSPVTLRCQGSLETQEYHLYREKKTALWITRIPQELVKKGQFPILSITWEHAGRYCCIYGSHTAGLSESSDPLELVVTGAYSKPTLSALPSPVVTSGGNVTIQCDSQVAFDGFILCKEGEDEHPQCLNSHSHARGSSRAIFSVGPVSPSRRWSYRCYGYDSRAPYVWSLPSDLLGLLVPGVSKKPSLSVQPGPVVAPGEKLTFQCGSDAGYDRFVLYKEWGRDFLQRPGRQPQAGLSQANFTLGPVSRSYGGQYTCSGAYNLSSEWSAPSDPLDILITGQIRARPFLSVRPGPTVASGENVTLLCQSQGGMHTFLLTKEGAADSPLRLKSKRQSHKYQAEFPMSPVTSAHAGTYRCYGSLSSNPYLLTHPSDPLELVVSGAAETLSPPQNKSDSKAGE
LILRA2, sequence (chain, as listed by the source limits assumed): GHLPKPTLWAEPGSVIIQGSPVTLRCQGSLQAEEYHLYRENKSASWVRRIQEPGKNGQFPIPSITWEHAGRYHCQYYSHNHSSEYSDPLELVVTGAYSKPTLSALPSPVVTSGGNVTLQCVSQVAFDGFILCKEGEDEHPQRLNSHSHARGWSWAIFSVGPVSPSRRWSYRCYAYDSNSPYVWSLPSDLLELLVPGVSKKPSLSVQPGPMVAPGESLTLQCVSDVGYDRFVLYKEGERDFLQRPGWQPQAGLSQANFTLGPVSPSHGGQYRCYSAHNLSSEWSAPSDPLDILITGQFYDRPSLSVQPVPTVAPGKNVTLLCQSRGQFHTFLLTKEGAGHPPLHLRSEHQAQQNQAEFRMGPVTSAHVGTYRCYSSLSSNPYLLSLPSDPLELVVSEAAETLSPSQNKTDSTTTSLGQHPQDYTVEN
LILRA4, sequence (chain, as listed by the source limits assumed): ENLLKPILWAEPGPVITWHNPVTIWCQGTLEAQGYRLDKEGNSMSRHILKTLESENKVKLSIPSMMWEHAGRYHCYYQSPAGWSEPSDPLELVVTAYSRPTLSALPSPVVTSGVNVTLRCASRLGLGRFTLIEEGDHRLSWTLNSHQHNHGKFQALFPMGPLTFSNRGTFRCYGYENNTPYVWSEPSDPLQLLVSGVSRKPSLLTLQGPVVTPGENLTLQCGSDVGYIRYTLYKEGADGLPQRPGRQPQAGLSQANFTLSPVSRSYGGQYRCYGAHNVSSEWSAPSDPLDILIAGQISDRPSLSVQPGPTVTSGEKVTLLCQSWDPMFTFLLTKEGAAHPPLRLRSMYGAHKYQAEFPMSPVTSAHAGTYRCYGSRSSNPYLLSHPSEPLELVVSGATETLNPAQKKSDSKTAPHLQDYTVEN
LILRA1 on reporter cells (extracellular domain), sequence (O75019 17-461 limits assumed): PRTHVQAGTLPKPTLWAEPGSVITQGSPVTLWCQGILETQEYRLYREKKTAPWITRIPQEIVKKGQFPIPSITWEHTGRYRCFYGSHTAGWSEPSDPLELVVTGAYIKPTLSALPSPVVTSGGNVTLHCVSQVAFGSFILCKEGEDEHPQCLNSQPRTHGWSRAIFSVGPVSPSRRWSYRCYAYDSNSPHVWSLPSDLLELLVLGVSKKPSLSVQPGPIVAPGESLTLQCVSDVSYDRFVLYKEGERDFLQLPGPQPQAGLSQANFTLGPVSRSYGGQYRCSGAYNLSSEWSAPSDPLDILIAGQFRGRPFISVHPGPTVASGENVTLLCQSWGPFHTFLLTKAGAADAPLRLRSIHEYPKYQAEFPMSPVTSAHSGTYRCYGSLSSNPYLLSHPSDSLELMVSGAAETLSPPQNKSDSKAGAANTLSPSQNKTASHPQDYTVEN
LILRA5, sequence (chain, as listed by the source limits assumed): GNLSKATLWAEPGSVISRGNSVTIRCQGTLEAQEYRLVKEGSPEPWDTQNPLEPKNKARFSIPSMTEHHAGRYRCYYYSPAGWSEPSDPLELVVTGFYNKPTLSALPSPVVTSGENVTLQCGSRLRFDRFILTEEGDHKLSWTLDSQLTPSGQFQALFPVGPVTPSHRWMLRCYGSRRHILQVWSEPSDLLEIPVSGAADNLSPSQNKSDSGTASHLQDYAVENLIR
LILRA6, sequence (chain, as listed by the source limits assumed): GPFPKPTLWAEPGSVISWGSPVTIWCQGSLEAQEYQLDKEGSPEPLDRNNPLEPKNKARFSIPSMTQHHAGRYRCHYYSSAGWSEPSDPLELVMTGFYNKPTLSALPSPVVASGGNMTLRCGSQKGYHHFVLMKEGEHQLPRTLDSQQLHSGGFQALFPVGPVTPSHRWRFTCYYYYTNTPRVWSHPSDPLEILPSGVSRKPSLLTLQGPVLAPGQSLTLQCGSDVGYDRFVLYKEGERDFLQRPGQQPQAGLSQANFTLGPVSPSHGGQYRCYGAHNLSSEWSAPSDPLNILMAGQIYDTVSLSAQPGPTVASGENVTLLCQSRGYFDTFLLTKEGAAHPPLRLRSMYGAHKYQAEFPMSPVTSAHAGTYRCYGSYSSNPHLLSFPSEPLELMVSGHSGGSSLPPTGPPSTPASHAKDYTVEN
LAIR1 on reporter cells, sequence (Q6GTX8 22-165 limits assumed): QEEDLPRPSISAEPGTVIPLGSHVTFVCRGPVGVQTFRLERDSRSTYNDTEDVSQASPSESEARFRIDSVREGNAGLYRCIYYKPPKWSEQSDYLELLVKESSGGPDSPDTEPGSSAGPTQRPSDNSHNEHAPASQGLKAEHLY

MFI (LAIR1 on reporter cells): 23
MFI [1]: 10
MFI (LILRA2): 9
MFI (LILRA3): 10
MFI (LILRA4): 10
MFI (LILRA5): 11
MFI (LILRA6): 10
MFI (LILRB1): 9
MFI [2]: 10
MFI (LILRB3): 9
MFI (LILRB4): 13
MFI (LILRB5): 11
Substance: 2nd Ab (antibody)
